Reference: patent US20200040065A1 (INTEGRATED BIOTHERAPEUTICS, published 2020)

Molecular target: BDBV GP ectodomain (Bundibugyo virus)

B1: monoclonal antibody CA45 (antibody, V domains shown)
VH: QVQLQEWGEGLVKPSETLSLTCAVYGGSISGYYHWNWIRLPPGKGLEWIGNIDNSASTNYNPSLKTRVTISKDTSKNQISLKVRSLTAADTAVYYCARDPGFTIFGVVITSWSGLDSWGQGAVVTVSS
VL: DIQMTQSPSSLSASVGDTVTITCRASQSISNNLAWYQQRPRRAPQLLIYAASNLASGVPSRFSGSGSGTDFTLTISSLQAEDFAAYYCQQHNTLPLTFGGGTKVEI
Q: How did the EC50 turn out when B1 was run?
A: Its EC50 is 0.65 to 1.41 nM.
